Drawing on paper PMC8956657 (2022), this text covers Kd for one molecule.

Where no end group is shown, it is not given here.

In assay [1] the target is IMPα2 lacking the IBB domain (residues 70-529) (UniProt P52293 70-529). In words: FP.
Assay [2] deals with IMPα5 lacking the IBB domain (residues 73-538) (UniProt P52294 73-538). Description: FP.
Sequence of IMPα5 lacking the IBB domain (residues 73-538) (P52294 73-538): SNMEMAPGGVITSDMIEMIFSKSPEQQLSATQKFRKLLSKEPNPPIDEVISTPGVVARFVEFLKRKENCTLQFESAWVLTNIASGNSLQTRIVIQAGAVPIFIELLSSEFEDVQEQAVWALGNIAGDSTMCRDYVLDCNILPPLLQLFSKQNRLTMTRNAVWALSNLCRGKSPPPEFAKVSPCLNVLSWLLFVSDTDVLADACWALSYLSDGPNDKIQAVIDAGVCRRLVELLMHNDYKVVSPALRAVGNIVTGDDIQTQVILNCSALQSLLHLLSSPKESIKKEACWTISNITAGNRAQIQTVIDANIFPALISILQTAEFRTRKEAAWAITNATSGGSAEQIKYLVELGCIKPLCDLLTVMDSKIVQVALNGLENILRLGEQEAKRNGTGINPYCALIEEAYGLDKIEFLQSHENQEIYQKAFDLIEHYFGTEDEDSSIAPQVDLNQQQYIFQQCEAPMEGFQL

In the case of RKARKRSHSPTKKLRYVKRRF (also: FITC-tagged) [FITC-tagged MERS-CoV ORF4b NLS peptide (residues 19-39), wild type], the figures for the Kd in assay [1] and in assay [2] were 11.3 nM and 9.6 nM, respectively.

What is called Kd is the concentration at which binding is half-saturated. A higher Kd goes with lower affinity.
